{"source": "patent US20240034774A1", "about": "(Gilead, published 2024)", "binders": {"B1": {"name": "Antibody A-1 (antibody, human IgG1, kappa)", "heavy": "QVQLLQSGAAVTKPGASVRVSCEASGYNIRDYFIHWWRQAPGQGLQWVGWINPKTGQPNNPRQFQGRVSLTRHASWDFDTFSFYMDLKALRSDDTAVYFCARQRSDYWDFDVWGSGTQVTVSSASTKGPSVFPLAPSSKSTSGGTAALGCLVKDYFPEPVTVSWNSGALTSGVHTFPAVLQSSGLYSLSSVVTVPSSSLGTQTYICNVNHKPSNTKVDKKVEPKSCDKTHTCPPCPAPELLAGPDVFLFPPKPKDTLMISRTPEVTCVVVDVSHEDPEVKFNWYVDGVEVHNAKTKPREEQYNSTYRVVSVLTVLHQDWLNGKEYKCKVSNKALPLPEEKTISKAKGQPREPQVYTLPPSREEMTKNQVSLTCLVKGFYPSDIAVEWESNGQPENNYKTTPPVLDSDGSFFLYSKLTVDKSRWQQGNVFSCSVLHEALHSHYTQKSLSLSPGK", "light": "DIQMTQSPSSLSASVGDTVTITCQANGYLNWYQQRRGKAPKLLIYDGSKLERGVPSRFSGRRWGQEYNLTINNLQPEDIATYFCQVYEFVVPGTRLDLKRTVAAPSVFIFPPSDEQLKSGTASVVCLLNNFYPREAKVQWKVDNALQSGNSQESVTEQDSKDSTYSLSSTLTLSKADYEKHKVYACEVTHQGLSSPVTKSFNRGEC"}, "B2": {"name": "1.1.15-1 (antibody, human IgG1, kappa)", "heavy": "B1 heavy", "light": "B1 light with V90F"}, "B3": {"name": "1.1.12-1 (antibody, human IgG1, kappa)", "heavy": "B1 heavy", "light": "B1 light with N72S, N73S"}, "B4": {"name": "1.1.9-1 (antibody, human IgG1, kappa)", "heavy": "B1 heavy", "light": "B1 light with R52T"}, "B5": {"name": "1.1.8-1 (antibody, human IgG1, kappa)", "heavy": "B1 heavy", "light": "B1 light with G47A, K49N"}, "B6": {"name": "1.1.7-1 (antibody, human IgG1, kappa)", "heavy": "B1 heavy", "light": "B1 light with K49N"}, "B7": {"name": "1.1.18-1 (antibody, human IgG1, kappa)", "heavy": "B1 heavy", "light": "B1 light with V91S"}, "B8": {"name": "1.1.11-1 (antibody, human IgG1, kappa)", "heavy": "B1 heavy", "light": "B1 light with R61S, N68T"}, "B9": {"name": "1.1.3-1 (antibody, human IgG1, kappa)", "heavy": "B1 heavy", "light": "B1 light with D1E"}, "B10": {"name": "1.1.13-1 (antibody, human IgG1, kappa)", "heavy": "B1 heavy", "light": "B1 light with R61S, N68T, N72S, N73S"}, "B11": {"name": "1.1.19-1 (antibody, human IgG1, kappa)", "heavy": "B1 heavy", "light": "B1 light with V91T"}, "B12": {"name": "1.1.21-1 (antibody, human IgG1, kappa)", "heavy": "B1 heavy", "light": "B1 light with V91G, R95N"}, "B13": {"name": "1.1.16-1 (antibody, human IgG1, kappa)", "heavy": "B1 heavy", "light": "B1 light with V91G"}, "B14": {"name": "1.1.17-1 (antibody, human IgG1, kappa)", "heavy": "B1 heavy", "light": "B1 light with V90F, V91G"}, "B15": {"name": "1.1.6-1 (antibody, human IgG1, kappa)", "heavy": "B1 heavy", "light": "B1 light with G47A"}, "B16": {"name": "1.1.5-1 (antibody, human IgG1, kappa)", "heavy": "B1 heavy", "light": "B1 light with R35K, R36P"}, "B17": {"name": "1.1.20-1 (antibody, human IgG1, kappa)", "heavy": "B1 heavy", "light": "B1 light with R95N"}, "B18": {"name": "1.1.10-1 (antibody, human IgG1, kappa)", "heavy": "B1 heavy", "light": "B1 light with N68T"}, "B19": {"name": "1.1.4-1 (antibody, human IgG1, kappa)", "heavy": "B1 heavy", "light": "B1 light with T18R"}, "B20": {"name": "1.36.1-1 (antibody, human IgG1, kappa)", "heavy": "QVQLVQSGAEVKKPGASVRVSCKASGYNIRDYFMHWWRQAPGQGLQWVGWINPKTGQPNNPRQFQGRVTMTRHASWDFDTFSAYMDLSRLRSDDTATYFCARQRTDYWDFDVWGQGTMVTVSSASTKGPSVFPLAPSSKSTSGGTAALGCLVKDYFPEPVTVSWNSGALTSGVHTFPAVLQSSGLYSLSSVVTVPSSSLGTQTYICNVNHKPSNTKVDKKVEPKSCDKTHTCPPCPAPELLAGPDVFLFPPKPKDTLMISRTPEVTCVVVDVSHEDPEVKFNWYVDGVEVHNAKTKPREEQYNSTYRVVSVLTVLHQDWLNGKEYKCKVSNKALPLPEEKTISKAKGQPREPQVYTLPPSREEMTKNQVSLTCLVKGFYPSDIAVEWESNGQPENNYKTTPPVLDSDGSFFLYSKLTVDKSRWQQGNVFSCSVLHEALHSHYTQKSLSLSPGK", "light": "B1 light"}}, "note": "Substitutions are numbered along the chain they refer to.", "data": [{"molecular_target": "BSA (UniProt P02769 25-607)", "test": "single-point ELISA, BSA control", "units": {"ELISA A450": "A450"}, "values": [{"binder": "B1", "ELISA A450": 0.06}, {"binder": "B2", "ELISA A450": 0.06}, {"binder": "B3", "ELISA A450": 0.06}, {"binder": "B4", "ELISA A450": 0.07}, {"binder": "B5", "ELISA A450": 0.06}, {"binder": "B6", "ELISA A450": 0.06}, {"binder": "B7", "ELISA A450": 0.06}, {"binder": "B8", "ELISA A450": 0.06}, {"binder": "B9", "ELISA A450": 0.07}, {"binder": "B10", "ELISA A450": 0.06}, {"binder": "B11", "ELISA A450": 0.06}, {"binder": "B12", "ELISA A450": 0.06}, {"binder": "B13", "ELISA A450": 0.06}, {"binder": "B14", "ELISA A450": 0.06}, {"binder": "B15", "ELISA A450": 0.07}, {"binder": "B16", "ELISA A450": 0.06}, {"binder": "B17", "ELISA A450": 0.07}, {"binder": "B18", "ELISA A450": 0.06}, {"binder": "B19", "ELISA A450": 0.06}]}, {"molecular_target": "gp120 SHIV SF162 P3 (SHIV SF162 P3)", "test": "single-point ELISA at EC50 conc. of A-1", "units": {"ELISA A450": "A450"}, "values": [{"binder": "B1", "ELISA A450": 0.94}, {"binder": "B20", "ELISA A450": 0.59}, {"binder": "B2", "ELISA A450": 0.79}, {"binder": "B3", "ELISA A450": 1.13}, {"binder": "B4", "ELISA A450": 1.09}, {"binder": "B5", "ELISA A450": 0.37}, {"binder": "B6", "ELISA A450": 1.02}, {"binder": "B7", "ELISA A450": 0.94}, {"binder": "B8", "ELISA A450": 0.93}, {"binder": "B9", "ELISA A450": 0.97}, {"binder": "B10", "ELISA A450": 0.97}, {"binder": "B11", "ELISA A450": 1.12}, {"binder": "B12", "ELISA A450": 1.03}, {"binder": "B13", "ELISA A450": 1.05}, {"binder": "B14", "ELISA A450": 1.07}, {"binder": "B15", "ELISA A450": 0.41}, {"binder": "B16", "ELISA A450": 0.93}, {"binder": "B17", "ELISA A450": 1.01}, {"binder": "B18", "ELISA A450": 1.02}, {"binder": "B19", "ELISA A450": 1.07}]}, {"molecular_target": "gp120 CAAN (HIV (CAAN))", "test": "single-point ELISA at EC50 conc. of A-1", "units": {"ELISA A450": "A450"}, "values": [{"binder": "B1", "ELISA A450": 1.06}, {"binder": "B20", "ELISA A450": 0.75}, {"binder": "B2", "ELISA A450": 0.79}, {"binder": "B3", "ELISA A450": 1.02}, {"binder": "B4", "ELISA A450": 0.93}, {"binder": "B5", "ELISA A450": 0.5}, {"binder": "B6", "ELISA A450": 1}, {"binder": "B7", "ELISA A450": 0.92}, {"binder": "B8", "ELISA A450": 1.03}, {"binder": "B9", "ELISA A450": 1}, {"binder": "B10", "ELISA A450": 1.11}, {"binder": "B11", "ELISA A450": 1.05}, {"binder": "B12", "ELISA A450": 0.99}, {"binder": "B13", "ELISA A450": 0.99}, {"binder": "B14", "ELISA A450": 0.9}, {"binder": "B15", "ELISA A450": 0.46}, {"binder": "B16", "ELISA A450": 0.9}, {"binder": "B17", "ELISA A450": 0.95}, {"binder": "B18", "ELISA A450": 1.1}, {"binder": "B19", "ELISA A450": 1.09}]}, {"molecular_target": "gp120 Bal (HIV (Bal))", "test": "single-point ELISA at EC50 conc. of A-1", "units": {"ELISA A450": "A450"}, "values": [{"binder": "B1", "ELISA A450": 0.91}, {"binder": "B20", "ELISA A450": 1.13}, {"binder": "B2", "ELISA A450": 0.93}, {"binder": "B3", "ELISA A450": 1.05}, {"binder": "B4", "ELISA A450": 0.98}, {"binder": "B5", "ELISA A450": 1.01}, {"binder": "B6", "ELISA A450": 0.95}, {"binder": "B7", "ELISA A450": 0.92}, {"binder": "B8", "ELISA A450": 0.92}, {"binder": "B9", "ELISA A450": 0.97}, {"binder": "B10", "ELISA A450": 0.94}, {"binder": "B11", "ELISA A450": 1.03}, {"binder": "B12", "ELISA A450": 0.98}, {"binder": "B13", "ELISA A450": 1.06}, {"binder": "B14", "ELISA A450": 1.02}, {"binder": "B15", "ELISA A450": 0.91}, {"binder": "B16", "ELISA A450": 0.9}, {"binder": "B17", "ELISA A450": 0.94}, {"binder": "B18", "ELISA A450": 0.94}, {"binder": "B19", "ELISA A450": 0.96}]}]}
